Substitutions are numbered along the chain they refer to. Numbers in names are those of the source. Where two headings read alike, the source gives them in different places.
B1: PR001028 (Selicrelumab) (antibody, human IgG2, kappa, V domains shown)
VH: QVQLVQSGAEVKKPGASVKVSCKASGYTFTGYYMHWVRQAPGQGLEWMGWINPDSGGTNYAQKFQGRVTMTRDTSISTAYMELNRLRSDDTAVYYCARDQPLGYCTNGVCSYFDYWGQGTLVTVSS
VL: DIQMTQSPSSVSASVGDRVTITCRASQGIYSWLAWYQQKPGKAPNLLIYTASTLQSGVPSRFSGSGSGTDFTLTISSLQPEDFATYYCQQANIFPLTFGGGTKVEIKR
notes: CD40 positive control antibody
B2: PR006499 (antibody, human IgG1, kappa, V domains shown)
VH: QVQLVQSGAEVKKPGASVKVSCKASGYTFAGYYMYWVRQAPGQGLEWMGWINPDSGAPTYAQKFQGRVTMTRDTSISTAYMELSRLRSDDTAVYYCAREKIYYGSGNYYPSFDYWGQGTLVTVSS
VL: DIQLTQSPSFLSASVGDRVTITCRASQGISSYLAWYQQKPGKAPKLLIYAASTLQSGVPSRFSGSGSGTEFTLTISSLQPEDFATYYCQQLWSYPWTFGQGTKVEIKR
notes: PR003379 variant L:N92W; human IgG1 L234A, L235A, G237A
B3: PR006500 (antibody, human IgG1, kappa, V domains shown)
VH: B2 VH
VL: B2 VL with W92M
notes: PR003379 variant L:N92M; human IgG1 L234A, L235A, G237A
B4: PR006502 (antibody, human IgG1, kappa, V domains shown)
VH: B2 VH
VL: B2 VL with W92D
notes: PR003379 variant L:N92D; human IgG1 L234A, L235A, G237A
B5: PR006510 (antibody, human IgG1, kappa, V domains shown)
VH: B2 VH
VL: B2 VL with W92N, S93R
notes: PR003379 variant L:S93R; human IgG1 L234A, L235A, G237A
B6: PR006511 (antibody, human IgG1, kappa, V domains shown)
VH: B2 VH
VL: B2 VL with W92N, S93N
notes: PR003379 variant L:S93N; human IgG1 L234A, L235A, G237A
B7: PR006515 (antibody, human IgG1, kappa, V domains shown)
VH: B2 VH
VL: B2 VL with W92N, S93M
notes: PR003379 variant L:S93M; human IgG1 L234A, L235A, G237A
B8: PR006504 (antibody, human IgG1, kappa, V domains shown)
VH: B2 VH
VL: B2 VL with W92V
notes: PR003379 variant L:N92V; human IgG1 L234A, L235A, G237A

Columns and labels:
[1] = target: T1, human CD40 on cells (human, UniProt P25942 21-277); assay: FACS, CHO-K1/hCD40 cells
T1 construct: whole, on cells; The cell line used is named in each row's assay; also called hCD40; TNFRSF5
Description: (§1) Flow cytometry (FACS) was used to detect the binding ability of the CD40 antibody to cells, such as, CHO-K1/hCD40 highly expressing human CD40 (constructed by Beijing Kyinno Biotechnology), CHO-K1/cyCD40 highly expressing cynomolgus monkey CD40 (constructed by Beijing Kyinno Biotechnology) and lymphoma cell highly expressing human CD40, Raji (ATCC, #CCL-86). Specifically, the cells were digested and resuspended with complete medium (F-12K for CHO-K1 cells; and RPMI-1640 for Raji cells); and the cells were adjusted to a cell density of 1×10⁶ cells/mL. The cells were seeded in a 96-well V-bottom plate (Corning, #3894) at 100 μL/well, and the antigen binding protein to be tested at 2x final concentration was then added at 100 μL/well and mixed evenly, with the highest final concentration of the antigen binding protein of 300 nM, a total of 8 concentrations, and 5-fold concentration gradient dilution. hIgG (Crownbio, #C0002) was used as a negative control, and the positive control molecule was the molecule in Table 1-5. The cells were incubated at 4° C. for 1 hours in the dark. After the incubation, the cells were rinsed twice by adding pre-chilled PBS at 100 μL/well, and centrifuged at 500 g at 4° C. for 5 minutes, and the supernatant was discarded. Then, a fluorescent secondary antibody (goat anti-human IgG (H+L) secondary antibody, Alexa Fluor® 488 conjugate, Invitrogen, #A11013, 1:1000 dilution) was added at 100 µL/well, and the cells were incubated at 4° C. for 30 minutes in the dark. The cells were washed twice with pre-chilled PBS at 200 μL/well, and centrifuged at 500 g at 4° C. for 5 minutes, and the supernatant was discarded. Finally, the cells were resuspended in pre-chilled PBS at 200 μL/well. The fluorescence signal values were read using a BD FACS CANTOII flow cytometer or ACEA NovoCyte flow cytometer, and the data were processed and analyzed using FlowJo v10 software (FlowJo, LLC).
(§2) Data processing and graphical analysis were performed using GraphPad Prism 8 software. The binding curve of the antibody to the target cell and parameters, such as EC50 value were obtained by four-parameter nonlinear fitting.

[2] = target: T1, human CD40 on cells; assay: cell-based or functional assay
[3] = target: T2, human CD40 protein (human, UniProt P25942 21-193, limits assumed); assay: BLI (Octet Red 96e), antibody captured on AHC sensor, human CD40 protein in solution, 1:1 global fit
T2 construct: the construct is not described
Method: To detect the affinity of CD40 antibodies for antigens such as human CD40 protein, the binding kinetics between antigen and antibody was analyzed using an Octet Red 96e (Fortebio) molecular interaction analyzer by biolayer interferometry (BLI) technique.
For determining the affinity of antibodies for antigens, the rotary speed of the sensor was set at 1000 rpm. […] The AHC sensors were finally regenerated by immersing in a 10 mM glycine-hydrochloric acid solution with pH 1.5 to elute the protein bound to the sensors.
For data analysis using Octet Data Analysis software (Fortebio, version 11.0), 0 nM well was used as the reference well, reference subtraction was performed, “1:1 Global fitting” method was selected for data fitting, the kinetic parameters of the binding of the antigen to the CD40 antibodies were calculated, and the kon (1/Ms) value, kdis (1/s) value and KD (M) value were obtained.

[4] = target: T1, human CD40 on cells; assay: FACS, Raji cells
Description: as §1, §2

[5] = target: T3, cynomolgus monkey CD40 on cells (cynomolgus monkey, UniProt G7PG38 21-278); assay: FACS, CHO-K1/cyCD40 cells
T3 construct: also called cyCD40; CHO-K1/cyCD40
Description: as §1, §2

[6] = target: T1, human CD40 on cells; assay: cell-based or functional assay; remark: listed apart in the source

T2 sequence (P25942 21-193 limits assumed): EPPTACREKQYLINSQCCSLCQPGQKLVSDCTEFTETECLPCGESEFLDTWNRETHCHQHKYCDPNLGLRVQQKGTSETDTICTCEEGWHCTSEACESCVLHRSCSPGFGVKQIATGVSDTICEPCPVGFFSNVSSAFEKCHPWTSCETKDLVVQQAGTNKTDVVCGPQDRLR
T3 sequence (G7PG38 entry or part of it limits assumed): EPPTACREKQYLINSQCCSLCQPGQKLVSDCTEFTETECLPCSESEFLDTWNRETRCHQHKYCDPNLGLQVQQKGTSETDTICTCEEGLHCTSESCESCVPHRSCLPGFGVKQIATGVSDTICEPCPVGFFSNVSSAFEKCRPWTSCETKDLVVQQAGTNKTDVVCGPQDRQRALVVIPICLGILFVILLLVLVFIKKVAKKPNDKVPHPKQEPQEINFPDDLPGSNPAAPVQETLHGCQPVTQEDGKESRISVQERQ
T1 sequence (P25942 21-277): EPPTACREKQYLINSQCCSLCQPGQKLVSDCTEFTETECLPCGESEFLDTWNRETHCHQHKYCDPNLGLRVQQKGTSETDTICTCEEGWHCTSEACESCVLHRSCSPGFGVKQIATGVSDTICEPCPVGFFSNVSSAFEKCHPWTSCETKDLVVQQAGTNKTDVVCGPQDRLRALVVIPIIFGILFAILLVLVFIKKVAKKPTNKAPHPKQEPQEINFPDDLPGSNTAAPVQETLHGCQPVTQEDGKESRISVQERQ

Binder | EC50 [1] [nM] | Maximum MFI [1] [MFI] | EC50 (nM), crosslinked (CHO-K1/hCD32B), HEK293-hCD40-NFkB reporter [2] [nM] | EC50 (nM), uncrosslinked, HEK293-hCD40-NFkB reporter [2] [nM] | Maximum RLU, crosslinked (CHO-K1/hCD32B), HEK293-hCD40-NFkB reporter [2] [RLU] | Maximum RLU, uncrosslinked, HEK293-hCD40-NFkB reporter [2] [RLU] | RLU fold (crosslinked/uncrosslinked) [2] [fold] | Kd [3] [nM] | koff [3] [s⁻¹] | kon [3] [M⁻¹ s⁻¹] | EC50 [4] [nM] | Maximum MFI [4] [MFI] | EC50 [5] [nM] | Maximum MFI [5] [MFI] | EC50 (nM), crosslinked, HEK293-hCD40-NFkB reporter [6] [nM] | EC50 (nM), uncrosslinked, HEK293-hCD40-NFkB reporter [6] [nM] | Fold (EC50 in the absence of crosslinking/EC50 in the presence of crosslinking) [6] [fold] | Maximum fold (fold), crosslinked [6] [fold] | Maximum fold (fold), uncrosslinked [6] [fold]
B1 | 10.3 | 85000 | 0.0413 | 0.163 | 17000 | 13400 | 1.28 | 4.5 | 0.00048 | 107000 | 0.484 | 2450 | 5.97 | 106000 | – | – | – | – | –
B2 | 4.65 | 84200 | – | – | – | – | – | – | – | – | 0.301 | 8980 | 3.2 | 49800 | 0.405 | 1.04 | 2.58 | 5.28 | 3.92
B3 | 5.01 | 85900 | – | – | – | – | – | – | – | – | 0.351 | 8980 | 4.4 | 48500 | 0.169 | 0.301 | 1.78 | 5.55 | 4.33
B4 | 4.55 | 88500 | – | – | – | – | – | – | – | – | 0.287 | 9040 | 3.96 | 47700 | 0.17 | 0.321 | 1.88 | 4.95 | 4.63
B5 | 4.98 | 83000 | – | – | – | – | – | – | – | – | 0.376 | 12400 | 4.55 | 44300 | 0.0423 | 0.125 | 2.96 | 4.66 | 4.54
B6 | 4.99 | 79400 | – | – | – | – | – | – | – | – | 0.386 | 11800 | 3.68 | 40300 | 0.16 | 0.815 | 5.1 | 5.19 | 4.5
B7 | 4.59 | 86300 | – | – | – | – | – | – | – | – | 0.322 | 8900 | 3.75 | 50600 | 0.0669 | 0.268 | 4.01 | 4.91 | 4.54
B8 | 4.87 | 86000 | – | – | – | – | – | – | – | – | 0.35 | 12200 | 3.71 | 51000 | 0.157 | 0.708 | 4.5 | 5.21 | 4.7
